Results published in the RNAGym collection of RNA variant scans (doi:10.1021/acssynbio.7b00057).

B1: Pistol ribozyme (parent)
chain: GGGUCGUUGUUCCAUAAUCGCGUGGAUAUGGCACGCAAGUUUCUACCGGGCACCGUAAAUGUCCGACUGGAGCCGUUCGGGCGGCUAUAAACAGACCUCAGGCCCGAAGCGUGGCGGCACCUGCCGCCGGUGGUAAAAAAGAUCGGAAGAGCACACGUCU

Variants of: B1
Test: aptazyme ON/OFF ratio, guanine; higher = stronger switching; co-transcriptional cleavage with and without guanine

| Variant | aptazyme ON/OFF ratio |
| --- | --- |
| G9U U10A U11C C12G C13U | 1.47 |
| G9U U10A U11C C12G C13A | 1.3 |
| G9U U10A U11C C12G C13G | 0.978 |
| G9U U10C U11G C12G C13U | 1.12 |
| G9U U10C U11G C12G C13G | 1.24 |
| G9U U10C U11G C12G C13A | 1.17 |
| U10A C12G | 1.65 |
| U10A C12A | 1.62 |
| U10A C12U | 1.16 |
| G9U U10A U11G C12G C13G | 1.11 |
| G9U U10A U11G C12G C13A | 1.1 |
| G9U U10A U11G C12G C13U | 1.14 |
| G9U U11C C12G | 1.83 |
| G9U U11C C12U | 2.4 |
| G9U U11C C12A | 2 |
| G9U U10G C12U C13U | 1.26 |
| G9U U10G C12U C13A | 1.35 |
| G9U U10G C12U C13G | 1.66 |
| U10C U11C C12U C13U | 1.02 |
| U10C U11C C12U C13A | 1.07 |
| U10C U11C C12U C13G | 1.06 |
| G9U U10C C12G C13G | 1.32 |
| G9U U10C C12G C13U | 1.18 |
| G9U U10C C12G C13A | 1.35 |

| Variant | aptazyme ON/OFF ratio |
| --- | --- |
| G9U U10A U11C C12A C13G | 0.991 |
| G9U U10A U11C C12A C13U | 1.41 |
| G9U U10A U11C C12A C13A | 1.06 |
| G9U U10G U11C C12U C13A | 1.14 |
| G9U U10G U11C C12U C13U | 1.18 |
| G9U U10G U11C C12U C13G | 1.17 |
| G9U U10C U11G C12A C13U | 1.08 |
| G9U U10C U11G C12A C13A | 1.34 |
| G9U U10C U11G C12A C13G | 1.22 |
| G9U U11A C13U | 1.44 |
| G9U U11A C13G | 1.13 |
| G9U U11A C13A | 1.48 |
| G9U U11C C13G | 1.06 |
| G9U U11C C13A | 1.22 |
| G9U U11C C13U | 1.37 |
| U10A C13G | 1.1 |
| U10A C13U | 1.08 |
| U10A C13A | 1.11 |
| G9U U11G C13G | 1.21 |
| G9U U11G C13A | 1.37 |
| G9U U11G C13U | 1.7 |
| G9U U10G U11G C12A C13U | 1.38 |
| G9U U10G U11G C12A C13G | 1.13 |
| G9U U10G U11G C12A C13A | 1.28 |

| Variant | aptazyme ON/OFF ratio |
| --- | --- |
| U10A U11C C12G C13A | 1.15 |
| U10A U11C C12G C13U | 1.23 |
| U10A U11C C12G C13G | 1.29 |
| U10A C12U C13A | 1.3 |
| U10A C12U C13G | 1.33 |
| U10A C12U C13U | 1.54 |
| U10C U11A C12U C13G | 1.32 |
| U10C U11A C12U C13U | 1.19 |
| U10C U11A C12U C13A | 1.38 |
| U10C C12A | 1.51 |
| U10C C12G | 1.36 |
| U10C C12U | 2.09 |
| G9U U10G C12A C13A | 0.843 |
| G9U U10G C12A C13G | 1.17 |
| G9U U10G C12A C13U | 1.45 |
| G9U U10G C13G | 1.29 |
| G9U U10G C13A | 1.52 |
| G9U U10G C13U | 1.65 |
| G9U U10C U11C C12U C13A | 1.11 |
| G9U U10C U11C C12U C13U | 1.18 |
| G9U U10C U11C C12U C13G | 1.09 |
| G9U U10G U11C C12A C13G | 1.29 |
| G9U U10G U11C C12A C13A | 1.34 |
| G9U U10G U11C C12A C13U | 1.23 |

| Variant | aptazyme ON/OFF ratio |
| --- | --- |
| G9U U10A U11C | 1.33 |
| G9U U10A U11G | 2.39 |
| U10C U11A C13G | 1.08 |
| U10C U11A C13U | 1.23 |
| U10C U11A C13A | 1.25 |
| G9U U10C C12A C13A | 1.39 |
| G9U U10C C12A C13G | 1.61 |
| G9U U10C C12A C13U | 1.38 |
| G9U U11A C12U C13G | 1.5 |
| G9U U11A C12U C13U | 1.65 |
| G9U U11A C12U C13A | 1.02 |
| G9U U10A U11G C13A | 1.56 |
| G9U U10A U11G C13G | 1.22 |
| G9U U10A U11G C13U | 1.72 |
| U10A U11G C12U C13G | 1.24 |
| U10A U11G C12U C13A | 1.62 |
| U10A U11G C12U C13U | 1.27 |
| U10C U11G C12U C13G | 1.33 |
| U10C U11G C12U C13A | 1.36 |
| U10C U11C C12G C13A | 1.17 |
| U10C U11C C12G C13G | 1.16 |
| U10C U11C C12G C13U | 1.11 |
| G9U U10C C12U C13G | 1.34 |
| G9U U10C C12U C13U | 1.63 |

| Variant | aptazyme ON/OFF ratio |
| --- | --- |
| G9U U10C C12U C13A | 1.69 |
| G9U U10C U11C C12G | 1.12 |
| G9U U10C U11C C12U | 1.31 |
| G9U U10C U11C C12A | 1.08 |
| U10C U11G | 1.57 |
| U10C U11C | 1.06 |
| U10C U11A | 1.47 |
| G9U U11C C12G C13G | 1.28 |
| G9U U11C C12G C13A | 1.3 |
| G9U U11C C12G C13U | 1.68 |
| U10A C12A C13G | 1.19 |
| U10A C12A C13A | 1.22 |
| U10A C12A C13U | 1.31 |
| G9U U10G U11A C12G C13A | 1.18 |
| G9U U10G U11A C12G C13G | 1.08 |
| G9U U10G U11A C12G C13U | 1.07 |
| G9U U10G U11A C12U C13G | 1.24 |
| G9U U10G U11A C12U C13A | 1.21 |
| G9U U10G U11A C12U C13U | 1.85 |
| G9U U10G C12A | 1.47 |
| G9U U10G C12U | 1.62 |
| G9U U10G C12G | 1.64 |
| U10A U11G C13U | 1.37 |
| U10A U11G C13G | 1.19 |

| Variant | aptazyme ON/OFF ratio |
| --- | --- |
| U10A U11G C13A | 1.33 |
| U10A U11A C12A C13U | 1.47 |
| U10A U11A C12A C13G | 1.18 |
| U10A U11A C12A C13A | 1.39 |
| G9U U10C U11G C13G | 1.18 |
| G9U U10C U11G C13U | 1.52 |
| G9U U10C U11G C13A | 1.36 |
| G9U U10G U11G C12U C13A | 1.1 |
| G9U U10G U11G C12U C13U | 1.34 |
| G9U U10G U11G C12U C13G | 1.17 |
| G9U U10A U11G C12U | 1.27 |
| G9U U10A U11G C12A | 1.79 |
| G9U U10A U11G C12G | 2.12 |
| U10A U11G | 2.01 |
| U10A U11A | 1.73 |
| U10A U11C | 1.05 |
| G9U U10G U11C C12G C13U | 1.27 |
| G9U U10G U11C C12G C13A | 1.27 |
| G9U U10G U11C C12G C13G | 1.06 |
| U10C C13G | 1.05 |
| U10C C13U | 1.08 |
| U10C C13A | 1.06 |
| U10A U11G C12G | 1.55 |
| U10A U11G C12A | 1.13 |

| Variant | aptazyme ON/OFF ratio |
| --- | --- |
| U10A U11G C12U | 1.52 |
| G9U U11C C12A C13G | 1.36 |
| G9U U11C C12A C13A | 1.48 |
| G9U U11C C12A C13U | 1.36 |
| G9U U11G C12A C13G | 1.32 |
| G9U U11G C12A C13A | 1.31 |
| G9U U11G C12A C13U | 1.36 |
| G9U U10G | 4.12 |
| G9U U10C | 4.48 |
| U10A U11A C12A | 1.18 |
| U10A U11A C12U | 1.64 |
| U10A U11A C12G | 1.83 |
| G9U U10A U11G C12A C13G | 1.37 |
| G9U U10A U11G C12A C13A | 1.14 |
| G9U U10A U11G C12A C13U | 1.25 |
| U10C U11A C12U | 1.45 |
| U10C U11A C12A | 1.48 |
| U10C U11A C12G | 1.47 |
| G9U U11C | 2.53 |
| G9U U11A | 1.24 |
| G9U U11G | 1.74 |
| G9U U10C C12A | 1.77 |
| G9U U10C C12G | 2.12 |
